Experimental data from PMC6599224.

Target: T1, IscR-WT (Pseudomonas aeruginosa PAO1) (UniProt Q9HXI7)
T1 sequence: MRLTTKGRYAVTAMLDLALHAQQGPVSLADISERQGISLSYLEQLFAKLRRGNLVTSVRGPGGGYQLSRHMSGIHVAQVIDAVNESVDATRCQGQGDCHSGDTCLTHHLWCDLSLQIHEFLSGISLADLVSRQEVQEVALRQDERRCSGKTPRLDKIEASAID
Experiment: DNase I footprinting
Settings: EMSA: 20 mM Tris-HCl pH 8.0, 50 mM KCl, 4 mM MgCl2, 0.5 mM EDTA, 0.02 mg/ml BSA, 5 mM DTT, 10% glycerol, 200 ng poly(dI-dC), 3 fmol probe in 25 ul, 25 C …

GCCTTTCTGCGGGAGCTGGCCATCGACGTTGACCGGGTTGCCCTTGAGAGTCACTTGAGCCATTGCGTTGATCCTTCTAGTCAGTGAGAAGCCGCCGGCCCTGTGGCCGGCGGCGGAAGCATTCGGGGCCGGCGACGATGCTAGCACGCTTTACCCGAGCGAAAACCTCGGGTTTGAGCATCGCCGTCCCCCGAGGCTCAACTCCTGGCCTTGGCGAAATACTCCCGGGTC (double strand) [tpx promoter]
binding: binds
